T1: recombinant histidine-tagged human ALF (TFIIAα/β-like factor) polypeptide, residues Val7 to Trp478 (human, UniProt Q9UNN4 7-478)
T1 construct: 479 amino acid polypeptide expressed in E. coli from pRSET-ALF, purified under denaturing conditions on Ni-NTA and renatured; migrates at 69 kD; also called p69; p69 (ALF)
T1 sequence: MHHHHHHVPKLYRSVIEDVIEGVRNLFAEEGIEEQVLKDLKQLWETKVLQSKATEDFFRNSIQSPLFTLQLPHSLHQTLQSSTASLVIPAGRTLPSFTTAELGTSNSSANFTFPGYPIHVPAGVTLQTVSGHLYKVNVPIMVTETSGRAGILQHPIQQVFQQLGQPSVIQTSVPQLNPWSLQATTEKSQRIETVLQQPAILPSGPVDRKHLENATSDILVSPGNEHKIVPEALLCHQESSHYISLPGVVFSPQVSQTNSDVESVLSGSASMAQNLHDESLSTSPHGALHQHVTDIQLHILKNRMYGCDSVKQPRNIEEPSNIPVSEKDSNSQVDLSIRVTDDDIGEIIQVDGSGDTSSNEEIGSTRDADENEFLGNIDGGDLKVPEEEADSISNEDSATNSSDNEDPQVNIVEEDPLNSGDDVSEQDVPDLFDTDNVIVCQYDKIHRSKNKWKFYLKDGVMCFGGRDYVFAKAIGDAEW

T2: recombinant rat TFIIAα/β (p55) subunit (rat, UniProt O08949 1-377)
T2 construct: also called rat p55
T2 sequence (looked up): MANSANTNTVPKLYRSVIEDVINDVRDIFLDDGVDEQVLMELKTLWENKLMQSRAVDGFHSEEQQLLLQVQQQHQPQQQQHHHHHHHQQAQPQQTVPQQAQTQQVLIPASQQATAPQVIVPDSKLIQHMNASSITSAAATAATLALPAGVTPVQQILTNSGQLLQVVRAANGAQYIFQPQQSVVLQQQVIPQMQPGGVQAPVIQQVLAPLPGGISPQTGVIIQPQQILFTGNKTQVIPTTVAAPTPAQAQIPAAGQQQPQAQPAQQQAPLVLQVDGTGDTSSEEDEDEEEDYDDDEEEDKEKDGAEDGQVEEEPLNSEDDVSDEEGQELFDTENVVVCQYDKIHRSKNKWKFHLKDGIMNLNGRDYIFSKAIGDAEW

T3: ALF/γ: recombinant human ALF (p69) together with recombinant rat TFIIAγ (p12) (human; rat, UniProt O08950 1-109)
T3 construct: also called ALF (p69) and TFIIAγ (p12)
T3 sequence 1: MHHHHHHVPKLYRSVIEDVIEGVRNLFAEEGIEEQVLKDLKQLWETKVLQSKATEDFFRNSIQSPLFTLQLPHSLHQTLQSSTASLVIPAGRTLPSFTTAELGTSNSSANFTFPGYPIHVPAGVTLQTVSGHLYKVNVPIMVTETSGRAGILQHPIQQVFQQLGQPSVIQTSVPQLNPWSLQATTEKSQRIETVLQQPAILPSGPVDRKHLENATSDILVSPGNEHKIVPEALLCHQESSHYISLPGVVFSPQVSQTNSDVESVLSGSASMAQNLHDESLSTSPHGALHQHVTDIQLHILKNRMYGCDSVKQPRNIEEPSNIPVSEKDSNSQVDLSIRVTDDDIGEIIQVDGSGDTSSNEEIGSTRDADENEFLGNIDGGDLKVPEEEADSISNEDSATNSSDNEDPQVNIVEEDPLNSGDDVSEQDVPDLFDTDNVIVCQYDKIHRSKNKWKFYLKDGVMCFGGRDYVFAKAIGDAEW
T3 sequence 2: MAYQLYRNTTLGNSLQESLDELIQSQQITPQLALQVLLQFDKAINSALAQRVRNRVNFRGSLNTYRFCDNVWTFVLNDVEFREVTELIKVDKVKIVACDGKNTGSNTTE

T4: TFIIAα/β/γ: recombinant rat TFIIAα/β (p55) together with recombinant rat TFIIAγ (p12) (rat, UniProt O08949 1-377; O08950 1-109)
T4 construct: also called TFIIAα/β (p55) and TFIIAγ (p12)
T4 sequence (looked up) 1: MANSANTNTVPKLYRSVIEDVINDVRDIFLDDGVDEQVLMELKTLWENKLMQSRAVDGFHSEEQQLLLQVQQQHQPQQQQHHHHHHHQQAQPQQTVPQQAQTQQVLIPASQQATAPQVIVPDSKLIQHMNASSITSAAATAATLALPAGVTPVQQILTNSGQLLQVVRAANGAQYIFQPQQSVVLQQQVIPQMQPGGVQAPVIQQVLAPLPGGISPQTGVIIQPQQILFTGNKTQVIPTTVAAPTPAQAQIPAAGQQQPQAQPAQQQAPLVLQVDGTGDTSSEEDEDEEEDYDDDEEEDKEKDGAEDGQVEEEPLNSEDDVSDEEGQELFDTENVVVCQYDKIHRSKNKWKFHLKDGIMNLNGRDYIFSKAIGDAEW
T4 sequence (looked up) 2: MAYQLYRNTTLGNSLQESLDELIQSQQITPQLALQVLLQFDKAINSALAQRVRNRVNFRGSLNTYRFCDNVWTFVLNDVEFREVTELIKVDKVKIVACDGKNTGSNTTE


Experiments:
[1] = target: T1, recombinant histidine-tagged human ALF …; assay: electrophoretic mobility shift assay; both subunits stand in one complex with TBP and DNA
Experimental: (§1) Mobility shift assays were performed using 10 fmol of a [γ-³²P] ATP kinase-labeled TATA-containing an oligonucleotide that spans nucleotides −40 to −16 of the Adenovirus Major Late (AdML) promoter. Binding reactions (25 μl final volume) were performed in 10 mM HEPES (pH 7.9), 2% (wt/vol) PEG-8000, 60 mM KCl, 5 mM DTT, 0.2 mM EDTA, 5 mM ammonium sulfate, 4 mM MgC1₂, and 8% glycerol. Recombinant rat p55 (30 ng; 29 nM), rat p12 (1.1 ug; 3.5 uM), human ALF (180 ng; 137 nM) and human TBP (125 ng; 133 nM) were added to reactions as indicated. Reactions were incubated for 30 minutes at room temperature, and complexes are separated on native 5% polyacrylamide gels containing 0.5×TBE and 5% glycerol. Competition experiments contain either cold AdML TATA or SP1 oligonucleotides, and antibody supershift reactions contain 2-4 μl of rabbit polyclonal antiserum raised against the 55 kD hTFIIAα/β polypeptide (3).
(§2) The activity of polypeptides was tested in electrophoretic mobility shift assays under conditions in which TATA-Binding Protein (TBP) alone is unable to bind DNA (FIG. 12B, lane 1). The presence of TFIIAα/β (p55) and TFIIAγ (p12) stabilized the TBP-DNA interaction via TFIIAα/β/γ-TBP-DNA complex formation (lane 2). Likewise, the recombinant ALF (p69) polypeptide, in conjunction with the TFIIAγ (p12) subunit, was able to form ALF/γ-TBP-DNA complexes (lane 5). […]

[2] = target: T2, recombinant rat TFIIAα/β (p55) subunit; assay: as above
Experimental: as §1, §2

[3] = target: T3, ALF/γ: recombinant human ALF (p69) …; assay: electrophoretic mobility shift assay on labelled AdML TATA oligonucleotide, under conditions in which TBP alone does not bind DNA
Experimental: as §1, §2

[4] = target: T4, TFIIAα/β/γ: recombinant rat TFIIAα/β …; assay: as above
Experimental: as §1, §2

| binding result [1] | binding result [2] | binding result [3] | binding result [4] | Binder |
| --- | --- | --- | --- | --- |
| binds | binds |  |  | recombinant rat TFIIAγ (p12) subunit (other, UniProt O08950 1-109, looked up, also called rat p12; p12 (TFIIAγ)) MAYQLYRNTTLGNSLQESLDELIQSQQITPQLALQVLLQFDKAINSALAQRVRNRVNFRGSLNTYRFCDNVWTFVLNDVEFREVTELIKVDKVKIVACDGKNTGSNTTE |
|  |  | binds | binds | recombinant histidine-tagged human TATA binding protein (TBP) (other, UniProt P20226 1-339, looked up, In the mobility shift assay TBP stood together with a labelled AdML TATA oligonucleotide (-40 to -16); also called human TBP; not shown: histidine tag) MDQNNSLPPYAQGLASPQGAMTPGIPIFSPMMPYGTGLTPQPIQNTNSLSILEEQQRQQQQQQQQQQQQQQQQQQQQQQQQQQQQQQQQQQQQQQAVAAAAVQQSTSQQATQGTSGQAPQLFHSQTLTTAPLPGTTPLYPSPMTPMTPITPATPASESSGIVPQLQNIVSTVNLGCKLDLKTIALRARNAEYNPKRFAAVIMRIREPRTTALIFSSGKMVCTGAKSEEQSRLAARKYARVVQKLGFPAKFLDFKIQNMVGSCDVKFPIRLEGLVLTHQQFSSYEPELFPGLIYRMIKPRIVLLIFVSGKVVLTGAKVRAEIYEAFENIYPILKGFRKTT |
